From patent US20220242944A1
Each block holds one binder with its values, some of them ahead of it.

Target: recombinant human PDGF-B (human) (UniProt P01127)
Assay: SPR (Biacore T200), antibody captured by anti-human Fc, antigen as analyte, 25 degrees C, pH 7.4, 1:1 model

UniProt P01127, sequence (P01127 82-190 limits assumed): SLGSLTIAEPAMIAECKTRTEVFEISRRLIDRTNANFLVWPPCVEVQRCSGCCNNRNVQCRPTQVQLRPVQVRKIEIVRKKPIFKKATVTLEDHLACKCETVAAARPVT

Kd: 0.0202 nM
B1: CPR001-GL-F1332m (antibody, V domains shown)
VH: EVQLLESGGGLVQPGGSLRLSCAASGFTFSSYAMSWVRQAPGKGLEWVSYISDDGSLKYYADSVKGRFTISRDNSKNTLYLQMNSLRAEDTAVYYCAKHPYWYGGQLDLWGQGTLVTVSS
VL: SYELTQPPSVSVSPGQTASITCSGDSLGSYFVHWYQQKPGQSPVLVIYDDSNRPSGIPERFSGSNSGNTATLTISGTQAMDEADYYCSAFTHNSDVFGGGTKLTVL

Kd: 0.0165 nM
B2: CPR001GLVH/xIC17-SG181v14hk (bispecific antibody, part only; not given: IC17 control arm and constant region, V domains shown, part only)
VH: B1 VH
VL: B1 VL
